Measured values reported in PMC4732737.

Columns and labels:
[1] = biological target: AviB-tagged BG505 SOSIP.v4.2 trimer (HIV-1); experiment: BLI
[2] = biological target: AviB-tagged BG505 SOSIP.664 A316W trimer (HIV-1); experiment: BLI

soluble CD4 (domain or fragment)
fold reduction of affinity against the wild-type trimer [1]: 2.4 fold | fold reduction of affinity against the wild-type trimer [2]: 2.4 fold
